Results on ten molecules are retold here after US20160272683A1 (Novo Nordisk, published 2016).

B1: [N-terminal(C18 diacid-gGlu), des1, 6T, 9V, 14T, 21E, 30T, 31G, 32T]mimylin (peptide)
peptide: {C18 diacid-γGlu}-ASELTTAVLGRLTAELHELETLPRTETGTGTP-NH2
SMILES: CC(C)C[C@H](NC(=O)[C@H](CCC(=O)O)NC(=O)[C@H](C)NC(=O)[C@@H](NC(=O)[C@H](CC(C)C)NC(=O)[C@H](CCCNC(=N)N)NC(=O)CNC(=O)[C@H](CC(C)C)NC(=O)[C@@H](NC(=O)[C@H](C)NC(=O)[C@@H](NC(=O)[C@@H](NC(=O)[C@H](CC(C)C)NC(=O)[C@H](CCC(=O)O)NC(=O)[C@H](CO)NC(=O)[C@H](C)NC(=O)CC[C@H](NC(=O)CCCCCCCCCCCCCCCCC(=O)O)C(=O)O)[C@@H](C)O)[C@@H](C)O)C(C)C)[C@@H](C)O)C(=O)N[C@@H](Cc1c[nH]cn1)C(=O)N[C@@H](CCC(=O)O)C(=O)N[C@@H](CC(C)C)C(=O)N[C@@H](CCC(=O)O)C(=O)N[C@H](C(=O)N[C@@H](CC(C)C)C(=O)N1CCC[C@H]1C(=O)N[C@@H](CCCNC(=N)N)C(=O)N[C@H](C(=O)N[C@@H](CCC(=O)O)C(=O)N[C@H](C(=O)NCC(=O)N[C@H](C(=O)NCC(=O)N[C@H](C(=O)N1CCC[C@H]1C(N)=O)[C@@H](C)O)[C@@H](C)O)[C@@H](C)O)[C@@H](C)O)[C@@H](C)O
B2: [N-terminal(C20 diacid-gGlu), des1, 9S, 21S, 23Y, 30S, 31G, 33Y]mimylin (peptide)
peptide: {C20 diacid-γGlu}-ASELSTASLGRLSAELHELSTYPRTETGSGSY-NH2
SMILES: CC(C)C[C@H](NC(=O)[C@H](CO)NC(=O)[C@H](C)NC(=O)[C@@H](NC(=O)[C@H](CO)NC(=O)[C@H](CC(C)C)NC(=O)[C@H](CCC(=O)O)NC(=O)[C@H](CO)NC(=O)[C@H](C)NC(=O)CC[C@H](NC(=O)CCCCCCCCCCCCCCCCCCC(=O)O)C(=O)O)[C@@H](C)O)C(=O)NCC(=O)N[C@@H](CCCNC(=N)N)C(=O)N[C@@H](CC(C)C)C(=O)N[C@@H](CO)C(=O)N[C@@H](C)C(=O)N[C@@H](CCC(=O)O)C(=O)N[C@@H](CC(C)C)C(=O)N[C@@H](Cc1c[nH]cn1)C(=O)N[C@@H](CCC(=O)O)C(=O)N[C@@H](CC(C)C)C(=O)N[C@@H](CO)C(=O)N[C@H](C(=O)N[C@@H](Cc1ccc(O)cc1)C(=O)N1CCC[C@H]1C(=O)N[C@@H](CCCNC(=N)N)C(=O)N[C@H](C(=O)N[C@@H](CCC(=O)O)C(=O)N[C@H](C(=O)NCC(=O)N[C@@H](CO)C(=O)NCC(=O)N[C@@H](CO)C(=O)N[C@@H](Cc1ccc(O)cc1)C(N)=O)[C@@H](C)O)[C@@H](C)O)[C@@H](C)O
notes: also called Ex. #100
B3: [N-terminal(C18 diacid-gGlu), des1, 6T, 9V, 30S, 31G]mimylin (peptide)
peptide: {C18 diacid-γGlu}-ASELTTAVLGRLSAELHELATLPRTETGSGSP-NH2
SMILES: CC(C)C[C@H](NC(=O)[C@H](CCC(=O)O)NC(=O)[C@H](Cc1c[nH]cn1)NC(=O)[C@H](CC(C)C)NC(=O)[C@H](CCC(=O)O)NC(=O)[C@H](C)NC(=O)[C@H](CO)NC(=O)[C@H](CC(C)C)NC(=O)[C@H](CCCNC(=N)N)NC(=O)CNC(=O)[C@H](CC(C)C)NC(=O)[C@@H](NC(=O)[C@H](C)NC(=O)[C@@H](NC(=O)[C@@H](NC(=O)[C@H](CC(C)C)NC(=O)[C@H](CCC(=O)O)NC(=O)[C@H](CO)NC(=O)[C@H](C)NC(=O)CC[C@H](NC(=O)CCCCCCCCCCCCCCCCC(=O)O)C(=O)O)[C@@H](C)O)[C@@H](C)O)C(C)C)C(=O)N[C@@H](C)C(=O)N[C@H](C(=O)N[C@@H](CC(C)C)C(=O)N1CCC[C@H]1C(=O)N[C@@H](CCCNC(=N)N)C(=O)N[C@H](C(=O)N[C@@H](CCC(=O)O)C(=O)N[C@H](C(=O)NCC(=O)N[C@@H](CO)C(=O)NCC(=O)N[C@@H](CO)C(=O)N1CCC[C@H]1C(N)=O)[C@@H](C)O)[C@@H](C)O)[C@@H](C)O
notes: also called Ex. #85
B4: [N-terminal(C18 diacid-gGlu), des1, 6T, 9V, 30T, 31G, 32T]mimylin (peptide)
peptide: {C18 diacid-γGlu}-ASELTTAVLGRLSAELHELATLPRTETGTGTP-NH2
notes: also called Ex. #95
B5: [N-terminal(C20 diacid-gGlu), des1, 4G, 23Y, 30S, 31G]mimylin (peptide)
peptide: {C20 diacid-γGlu}-ASGLSTAALGRLSAELHELATYPRTETGSGSP-NH2
notes: also called Ex. #79
B6: [N-terminal(C18 diacid-gGlu), des1, 30S]mimylin (peptide)
peptide: {C18 diacid-γGlu}-ASELSTAALGRLSAELHELATLPRTETGSESP-NH2
SMILES: CC(C)C[C@H](NC(=O)[C@H](C)NC(=O)[C@H](C)NC(=O)[C@@H](NC(=O)[C@H](CO)NC(=O)[C@H](CC(C)C)NC(=O)[C@H](CCC(=O)O)NC(=O)[C@H](CO)NC(=O)[C@H](C)NC(=O)CC[C@H](NC(=O)CCCCCCCCCCCCCCCCC(=O)O)C(=O)O)[C@@H](C)O)C(=O)NCC(=O)N[C@@H](CCCNC(=N)N)C(=O)N[C@@H](CC(C)C)C(=O)N[C@@H](CO)C(=O)N[C@@H](C)C(=O)N[C@@H](CCC(=O)O)C(=O)N[C@@H](CC(C)C)C(=O)N[C@@H](Cc1c[nH]cn1)C(=O)N[C@@H](CCC(=O)O)C(=O)N[C@@H](CC(C)C)C(=O)N[C@@H](C)C(=O)N[C@H](C(=O)N[C@@H](CC(C)C)C(=O)N1CCC[C@H]1C(=O)N[C@@H](CCCNC(=N)N)C(=O)N[C@H](C(=O)N[C@@H](CCC(=O)O)C(=O)N[C@H](C(=O)NCC(=O)N[C@@H](CO)C(=O)N[C@@H](CCC(=O)O)C(=O)N[C@@H](CO)C(=O)N1CCC[C@H]1C(N)=O)[C@@H](C)O)[C@@H](C)O)[C@@H](C)O
notes: also called Ex. #23
B7: [N-terminal(C18 diacid-gGlu), des1, 9V, 30S, 31G]mimylin (peptide)
peptide: {C18 diacid-γGlu}-ASELSTAVLGRLSAELHELATLPRTETGSGSP-NH2
SMILES: CC(C)C[C@H](NC(=O)[C@H](CCC(=O)O)NC(=O)[C@H](Cc1c[nH]cn1)NC(=O)[C@H](CC(C)C)NC(=O)[C@H](CCC(=O)O)NC(=O)[C@H](C)NC(=O)[C@H](CO)NC(=O)[C@H](CC(C)C)NC(=O)[C@H](CCCNC(=N)N)NC(=O)CNC(=O)[C@H](CC(C)C)NC(=O)[C@@H](NC(=O)[C@H](C)NC(=O)[C@@H](NC(=O)[C@H](CO)NC(=O)[C@H](CC(C)C)NC(=O)[C@H](CCC(=O)O)NC(=O)[C@H](CO)NC(=O)[C@H](C)NC(=O)CC[C@H](NC(=O)CCCCCCCCCCCCCCCCC(=O)O)C(=O)O)[C@@H](C)O)C(C)C)C(=O)N[C@@H](C)C(=O)N[C@H](C(=O)N[C@@H](CC(C)C)C(=O)N1CCC[C@H]1C(=O)N[C@@H](CCCNC(=N)N)C(=O)N[C@H](C(=O)N[C@@H](CCC(=O)O)C(=O)N[C@H](C(=O)NCC(=O)N[C@@H](CO)C(=O)NCC(=O)N[C@@H](CO)C(=O)N1CCC[C@H]1C(N)=O)[C@@H](C)O)[C@@H](C)O)[C@@H](C)O
notes: also called Ex. #76
B8: [N-terminal(C18 diacid-gGlu), des1, 6T, 9V, 30S, 31G, 32T]mimylin (peptide)
peptide: {C18 diacid-γGlu}-ASELTTAVLGRLSAELHELATLPRTETGSGTP-NH2
notes: also called Ex. #94
B9: [N-terminal(C20 diacid-gGlu), des1, 9T, 21S, 23Y, 30S, 31G]mimylin (peptide)
peptide: {C20 diacid-γGlu}-ASELSTATLGRLSAELHELSTYPRTETGSGSP-NH2
SMILES: CC(C)C[C@H](NC(=O)[C@H](CCCNC(=N)N)NC(=O)CNC(=O)[C@H](CC(C)C)NC(=O)[C@@H](NC(=O)[C@H](C)NC(=O)[C@@H](NC(=O)[C@H](CO)NC(=O)[C@H](CC(C)C)NC(=O)[C@H](CCC(=O)O)NC(=O)[C@H](CO)NC(=O)[C@H](C)NC(=O)CC[C@H](NC(=O)CCCCCCCCCCCCCCCCCCC(=O)O)C(=O)O)[C@@H](C)O)[C@@H](C)O)C(=O)N[C@@H](CO)C(=O)N[C@@H](C)C(=O)N[C@@H](CCC(=O)O)C(=O)N[C@@H](CC(C)C)C(=O)N[C@@H](Cc1c[nH]cn1)C(=O)N[C@@H](CCC(=O)O)C(=O)N[C@@H](CC(C)C)C(=O)N[C@@H](CO)C(=O)N[C@H](C(=O)N[C@@H](Cc1ccc(O)cc1)C(=O)N1CCC[C@H]1C(=O)N[C@@H](CCCNC(=N)N)C(=O)N[C@H](C(=O)N[C@@H](CCC(=O)O)C(=O)N[C@H](C(=O)NCC(=O)N[C@@H](CO)C(=O)NCC(=O)N[C@@H](CO)C(=O)N1CCC[C@H]1C(N)=O)[C@@H](C)O)[C@@H](C)O)[C@@H](C)O
notes: also called Ex. #92
B10: [N-terminal(C18 diacid-gGlu), des1, 30S, 31G, 32P]mimylin (peptide)
peptide: {C18 diacid-γGlu}-ASELSTAALGRLSAELHELATLPRTETGSGPP-NH2
SMILES: CC(C)C[C@H](NC(=O)[C@H](C)NC(=O)[C@H](C)NC(=O)[C@@H](NC(=O)[C@H](CO)NC(=O)[C@H](CC(C)C)NC(=O)[C@H](CCC(=O)O)NC(=O)[C@H](CO)NC(=O)[C@H](C)NC(=O)CC[C@H](NC(=O)CCCCCCCCCCCCCCCCC(=O)O)C(=O)O)[C@@H](C)O)C(=O)NCC(=O)N[C@@H](CCCNC(=N)N)C(=O)N[C@@H](CC(C)C)C(=O)N[C@@H](CO)C(=O)N[C@@H](C)C(=O)N[C@@H](CCC(=O)O)C(=O)N[C@@H](CC(C)C)C(=O)N[C@@H](Cc1c[nH]cn1)C(=O)N[C@@H](CCC(=O)O)C(=O)N[C@@H](CC(C)C)C(=O)N[C@@H](C)C(=O)N[C@H](C(=O)N[C@@H](CC(C)C)C(=O)N1CCC[C@H]1C(=O)N[C@@H](CCCNC(=N)N)C(=O)N[C@H](C(=O)N[C@@H](CCC(=O)O)C(=O)N[C@H](C(=O)NCC(=O)N[C@@H](CO)C(=O)NCC(=O)N1CCC[C@H]1C(=O)N1CCC[C@H]1C(N)=O)[C@@H](C)O)[C@@H](C)O)[C@@H](C)O
notes: also called Ex. #75

Broadly, the IC50 is the concentration needed to halve the response being measured.

Numbered stars: 1 amine (or outer) side, 2 acyl side, 3 side chain; on linkers, the order of the positions; unused ones are H or OH. * marks the point of attachment. C20 diacid = O=C(O)CCCCCCCCCCCCCCCCCCC(=O)*; C18 diacid = O=C(O)CCCCCCCCCCCCCCCCC(=O)*; γGlu = O=C(O)[C@H](CCC(=O)[*:2])N[*:1]

The test concerns the target T1, human calcitonin receptor (human, UniProt P30988 25-474).
T1 construct: whole, on cells; also called hCT-R; hCTR
T1 sequence (looked up): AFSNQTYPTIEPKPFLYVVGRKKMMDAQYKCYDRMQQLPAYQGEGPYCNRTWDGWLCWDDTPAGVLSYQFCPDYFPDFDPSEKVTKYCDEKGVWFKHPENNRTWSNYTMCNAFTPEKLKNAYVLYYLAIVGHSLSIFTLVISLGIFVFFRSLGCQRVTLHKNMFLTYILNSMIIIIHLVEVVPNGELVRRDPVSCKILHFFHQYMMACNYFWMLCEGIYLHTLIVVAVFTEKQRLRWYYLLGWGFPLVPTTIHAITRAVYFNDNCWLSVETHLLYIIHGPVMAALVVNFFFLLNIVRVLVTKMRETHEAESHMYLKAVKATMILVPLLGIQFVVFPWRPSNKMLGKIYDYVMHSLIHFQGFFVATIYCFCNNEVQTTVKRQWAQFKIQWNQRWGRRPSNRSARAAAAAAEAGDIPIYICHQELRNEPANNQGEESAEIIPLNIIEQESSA
The test can be described thus: whole-cell competition vs 125I-human calcitonin (Assay VIIa). Put shortly:
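BHK tk'ts 13 cells stably co-expressing human calcitonin receptor and a CRE-luciferase reporter, seeded overnight at 37 °C. Bound tracer counted by scintillation after cold HBSS washes and NaOH/SDS lysis; IC₅₀ from one-site competition fit taken as receptor affinity.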
B1: the IC50 was 17.3 nM.
Regarding B2, the IC50 came to 2.82 nM.
As to B3, the 50% inhibitory concentration (IC50) came out at 0.821 nM.
The same measure for B4: 1.7 nM; for B5: 0.385 nM.
The figure for B6 is 0.541 nM.
The figure for B7 is 0.855 nM; for B8 it is 0.651 nM.
Turning to B9, the IC50 worked out at 2.94 nM.
Regarding B10, the half-inhibitory concentration (IC50) came out at 20.5 nM.
